The target in the test is Recombinant TLR4 protein (R&D Systems 478-TR-050) (UniProt O00206 24-631). Kind of test: SPR. For orientation: Surface plasmon resonance follows binding to a sensor surface in real time, without labels.
Recombinant TLR4 protein (R&D Systems 478-TR-050), sequence (O00206 24-631): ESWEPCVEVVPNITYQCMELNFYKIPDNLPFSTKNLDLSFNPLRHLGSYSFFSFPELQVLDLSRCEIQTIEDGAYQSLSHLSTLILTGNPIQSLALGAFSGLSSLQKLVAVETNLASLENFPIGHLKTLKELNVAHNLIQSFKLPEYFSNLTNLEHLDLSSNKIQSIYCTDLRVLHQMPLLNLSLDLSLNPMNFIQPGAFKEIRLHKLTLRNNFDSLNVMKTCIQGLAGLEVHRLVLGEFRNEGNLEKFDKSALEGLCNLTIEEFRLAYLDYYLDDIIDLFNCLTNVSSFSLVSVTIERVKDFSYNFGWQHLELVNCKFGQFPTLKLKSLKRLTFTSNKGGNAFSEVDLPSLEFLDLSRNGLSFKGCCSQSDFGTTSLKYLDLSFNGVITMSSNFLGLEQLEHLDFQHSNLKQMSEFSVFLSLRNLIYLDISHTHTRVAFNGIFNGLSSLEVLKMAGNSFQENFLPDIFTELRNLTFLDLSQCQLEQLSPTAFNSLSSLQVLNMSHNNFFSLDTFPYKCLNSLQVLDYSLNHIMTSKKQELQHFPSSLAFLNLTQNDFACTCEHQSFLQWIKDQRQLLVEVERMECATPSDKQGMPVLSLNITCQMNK

B1: human recombinant IFI16 protein (natural protein)
chain: MGKKYKNIVLLKGLEVINDYHFRMVKSLLSNDLKLNLKMREEYDKIQIADLMEEKFRGDAGLGKLIKIFEDIPTLEDLAETLKKEKLKVKGPALSRKRKKEVDATSPAPSTSSTVKTEGAEATPGAQKRKKSTKEKAGPKGSKVSEEQTQPPSPAGAGMSTAMGRSPSPKTSLSAPPNSSSTENPKTVAKCQVTPRRNVLQKRPVIVKVLSTTKPFEYETPEMEKKIMFHATVATQTQFFHVKVLNTSLKEKFNGKKIIIISDYLEYDSLLEVNEESTVSEAGPNQTFEVPNKIINRAKETLKIDILHKQASGNIVYGVFMLHKKTVNQKTTIYEIQDDRGKMDVVGTGQCHNIPCEEGDKLQLFCFRLRKKNQMSKLISEMHSFIQIKKKTNPRNNDPKSMKLPQEQRQLPYPSEASTTFPESHLRTPQMPPTTPSSSFFTKKSEDTISKMNDFMRMQILKEGSHFPGPFMTSIGPAESHPHTPQMPPSTPSSSFLTTLKPRLKTEPEEVSIEDSAQSDLKEVMVLNATESFVYEPKEQKKMFHATVATENEVFRVKVFNIDLKEKFTPKKIIAIANYVCRNGFLEVYPFTLVADVNADRNMEIPKGLIRSASVTPKINQLCSQTKGSFVNGVFEVHKKNVRGEFTYYEIQDNTGKMEVVVHGRLTTINCEEGDKLKLTCFELAPKSGNTGELRSVIHSHIKVIKTRKNKKDILNPDSSMETSPDFFF
As usually defined, the koff is the first-order rate constant of dissociation. On to B1, for which the off-rate (koff) turned out to be 0.00576 s⁻¹.

These data come from PMC7505474 (2020).
